In PMC12007268:

What was measured:
[1] = target: FcRn immobilised on the FcRn affinity column Gen2 (Roche Diagnostics) (human) (UniProt P55899); experiment: pH-gradient FcRn affinity column chromatography; FcRn affinity column Gen2 (Roche); pH gradient; retention time and pH of elution
[2] = target: human neonatal Fc receptor, His-tagged (hFcRn-His) (UniProt P55899); experiment: BLI; Octet R8; hFcRn-His (40 µg/ml) held on NTA biosensors; trastuzumab-Fc variants in PBS pH 6.0 bound for 20 s, then dissociation in PBS pH 7.4 for 5 s; initial on-rate from the first 2 s, initial off-rate from the first 1 s; values relative to trastuzumab
[3] = target: human neonatal Fc receptor, His-tagged (hFcRn-His) (UniProt P55899)
[4] = target: human neonatal Fc receptor, His-tagged (hFcRn-His) (UniProt P55899); experiment: BLI (Octet R8); details: PBS (composition not stated), PBS pH 6.0 for association, PBS pH 7.4 for dissociation; for Relative on-rate (initial association rate, normalised to trastuzumab) (fold relative to trastuzumab): pH 6.0; for Relative off-rate (initial dissociation rate, normalised to trastuzumab) (fold relative to trastuzumab): pH 7.4
[5] = target: human neonatal Fc receptor, His-tagged (hFcRn-His) (UniProt P55899); experiment: SPR (Biacore T200); details: pH 6.0; 1× PBS (composition not stated); 1× PBST (pH 6.0)
[6] = target: trastuzumab (wild-type Fc) (human); experiment: SPR; Biacore T200; trastuzumab-Fc variants amine-coupled to a CM5 chip (about 1,000 RU); hFcRn-His 1,000 to 62.5 nM in 1x PBST pH 6.0, 30 µl/min; 1:1 binding model (trastuzumab: steady state); triplicate
[7] = target: trastuzumab-DHS (L309D/Q311H/N434S) (human); experiment: as above
[8] = target: trastuzumab-EML (L309E/Q311M/M428L) (human); experiment: as above
[9] = target: trastuzumab-PFc29 (Q311R/M428L) (human); experiment: as above
[10] = target: trastuzumab-YML (L309Y/Q311M/M428L) (human); experiment: as above

Substance	pH at elution from the FcRn affinity column [1] [pH]	retention time on the pH-gradient FcRn affinity column [1] [min]	average of relative on- and off-rate [2] [fold]	relative initial off-rate at pH 7.4 (against trastuzumab) [2] [fold]	relative initial on-rate at pH 6.0 (against trastuzumab) [2] [fold]	Relative on-rate (initial association rate, normalised to trastuzumab) (fold relative to trastuzumab) [4]	Relative off-rate (initial dissociation rate, normalised to trastuzumab) (fold relative to trastuzumab) [4]	ka [5] [M⁻¹ s⁻¹]	kd [5] [s⁻¹]	further results
trastuzumab-EML (L309E/Q311M/M428L) (antibody)	7.97	48	1.48	1.5	1.47					
trastuzumab (wild-type Fc) (antibody)	7.65	40.6	1	1	1					
trastuzumab-YML (L309Y/Q311M/M428L) (antibody)	8.09	51.2	1.92	1.74	2.1					serum half-life t1/2 (terminal, beta-phase) in hFcRn transgenic mice (Tg276 hemizygous), single i.v. bolus 5 mg/kg, n = 3 [3]: 13.5 days
trastuzumab-DHS L309D;Q311H;N434S						1.81	1.83	35700	0.0645	
trastuzumab (wild-type human IgG1 Fc)						1	1			
trastuzumab-DHS (L309D/Q311H/N434S) (antibody)			1.82	1.83	1.81					
trastuzumab-PFc29 (Q311R/M428L) (antibody)	8.05	50.2	1.77	1.6	1.94					
trastuzumab-EML L309E;Q311M;M428L						1.47	1.5	28500	0.0475	
trastuzumab-YML L309Y;Q311M;M428L						2.1	1.74	63200	0.0555	
human neonatal Fc receptor, His-tagged (hFcRn-His) (from UniProt P55899 24-297; P61769 21-119)										Kd [6]: 4.36 µM; Kd [7]: 1.8 µM; koff [7]: 0.0645 s⁻¹; kon [7]: 35700 M⁻¹ s⁻¹; Kd [8]: 1.67 µM; koff [8]: 0.0475 s⁻¹; kon [8]: 28500 M⁻¹ s⁻¹; Kd [9]: 1.81 µM; koff [9]: 0.0721 s⁻¹; kon [9]: 39800 M⁻¹ s⁻¹; Kd [10]: 0.878 µM; koff [10]: 0.0555 s⁻¹; kon [10]: 63200 M⁻¹ s⁻¹
trastuzumab-PFc29 Q311R;M428L						1.94	1.6	39800	0.0721	
